Source: patent US20240350597A1, “PROTEASE INHIBITORS” (University College Dublin, priority 2023, published 2024)
“Also recorded” adds a separate entry of the source.

Tested on: SARS-CoV-2 (WT, D614G)
Format: cell-based

B1: B3-WT: Wild type recombinant SerpinB3 (SCCA-1), 44.5 kDa cross-class inhibitor of cysteine proteases including CatL; SEQ ID No. 5 (protein, listed as Homo sapiens)
chain: MNSLSEANTKFMFDLFQQFRKSKENNIFYSPISITSALGMVLLGAKDNTAQQIKKVLHFDQVTENTTGKAATYHVDRSGNVHHQFQKLLTEFNKSTDAYELKIANKLFGEKTYLFLQEYLDAIKKFYQTSVESVDFANAPEESRKKINSWVESQTNEKIKNLIPEGNIGSNTTLVLVNAIYFKGQWEKKFNKEDTKEEKFWPNKNTYKSIQMMRQYTSFHFASLEDVQAKVLEIPYKGKDLSMIVLLPNEIDGLQKLEEKLTAEKLMEWTSLQNMRETRVDLHLPRFKVEESYDLKDTLRTMGMVDIFNGDADLSGMTGSRGLVLSGVLHKAFVEVTEEGAEAAAATAVVGFGSSPTSTNEEFHCNHPFLFFIRQNKTNSILFYGRFSSP
- inhibition of SARS-CoV-2 WT (D614G) infection (in words): reductions in SARS-CoV-2 infection
- inhibition of SARS-CoV-2 replication / infection (50 µM): 50%

B2: B3-TMP: SerpinB3 variant with RCL residues 350 to 354 (P4 to P1′) replaced by IQFRV to inhibit TMPRSS2; SEQ ID No. 6 (protein)
chain: MNSLSEANTKFMFDLFQQFRKSKENNIFYSPISITSALGMVLLGAKDNTAQQIKKVLHFDQVTENTTGKAATYHVDRSGNVHHQFQKLLTEFNKSTDAYELKIANKLFGEKTYLFLQEYLDAIKKFYQTSVESVDFANAPEESRKKINSWVESQTNEKIKNLIPEGNIGSNTTLVLVNAIYFKGQWEKKFNKEDTKEEKFWPNKNTYKSIQMMRQYTSFHFASLEDVQAKVLEIPYKGKDLSMIVLLPNEIDGLQKLEEKLTAEKLMEWTSLQNMRETRVDLHLPRFKVEESYDLKDTLRTMGMVDIFNGDADLSGMTGSRGLVLSGVLHKAFVEVTEEGAEAAAATAVIQFRVSPTSTNEEFHCNHPFLFFIRQNKTNSILFYGRFSSP
- inhibition of SARS-CoV-2 WT (D614G) infection (in words): good dose-dependent downregulation of viral replication; also recorded: greater inhibitor for both viral strains than WT-SerpinB3
- inhibition of SARS-CoV-2 replication: up to 50%
- inhibition of viral replication, full time treatment (50 µM): 93%
- viral inhibition, treatment limited to viral entry (50 µM): up to 70%
